# In US7026443:
# Target: HLA-A*2402 (human)
# Test: competition with 125I-labelled standard peptide for purified HLA-A*2402, gel filtration
# Conditions: not given
Binder,binding affinity ratio (IC50 of standard peptide / IC50 of test peptide),relative binding ratio (IC50 of standard peptide / IC50 of test peptide) (ratio to standard peptide)
EYRHYCYSL (modifications not checked) [HPV16 E6 82 …],0.0051,0.0051
HYCYSLYGTTL (modifications not checked) [HPV16 E6 85 …],0.065,0.065

# More lines, now with the values ahead:
binding affinity ratio (IC50 of standard peptide / IC50 of test peptide),relative binding ratio (IC50 of standard peptide / IC50 of test peptide) (ratio to standard peptide),Binder
,0.0069,HYSDSVYGDTL (modifications not checked) [HPV18 E6 80-90 peptide …]
,0.0001,KLTNTGLYNL (modifications not checked) [HPV18 E6 92-101 peptide …]

# Target: HLA-A*1101 (human)
# Test: competition with 125I-labelled standard peptide on purified HLA-A*1101, gel filtration
# Conditions: not given
row,Binder,binding affinity ratio (IC50 of standard peptide / IC50 of test peptide) (ratio to standard peptide)
1,"CMSCCRSSR (modifications not checked) [… (HPV16 E6, position 143, 9 amino acids)]",0.0001
2,"NIRGRWTGR (modifications not checked) [… (HPV16 E6, position 134, 9 amino acids)]",0.0005
3,"GNPYAVCDK (modifications not checked) [… (HPV16 E6, position 64, 9 amino acids)]",0.0001
4,"AVCDKCLKFY (modifications not checked) [… (HPV16 E6, position 68, 10 amino acids)]",0.019
5,"AVCDKCLK (modifications not checked) [AVCDKCLK (HPV16 E6, position 68, 8 amino acids)]",0.011
6,"LCPEEKQRH (modifications not checked) [… (HPV16 E6, position 117, 9 amino acids)]",0.0001
7,"CCRSSRTRR (modifications not checked) [… (HPV16 E6, position 146, 9 amino acids)]",0.0001

# Same assay, conditions: remark: other sources report otherwise
row,Binder,binding affinity ratio (IC50 of standard peptide / IC50 of test peptide) (ratio to standard peptide)
1,"HLDKKQRFH (modifications not checked) [… (HPV16 E6, position 125, 9 amino acids)]",0.0001
2,"AMFQDPQER (modifications not checked) [… (HPV16 E6, position 7, 9 amino acids)]",0.032
3,"IVYRDGNPY (modifications not checked) [… (HPV16 E6, position 59, 9 amino acids)]",0.15

# Target: HLA-A*0201 (human)
# Test: competition with 125I-labelled standard peptide on purified HLA, gel filtration
# Conditions: not given
row,Binder,binding affinity ratio (IC50 of standard peptide / IC50 of test peptide)
1,YMLDLQPET (modifications not checked) [HPV16 E7 11 …],0.14
2,TLRLCVQST (modifications not checked),0.0061
3,STLRLCVQST (modifications not checked) [HPV16 E7 63 …],0.0012
4,TLEDLLMGTL (modifications not checked),0.0002
5,TLRLCVQSTHV (modifications not checked),0.0006
6,VTFCCKCDST (modifications not checked) [HPV16 E7 55 …],0.0001

# Same assay, conditions: remark: other sources report otherwise
row,Binder,binding affinity ratio (IC50 of standard peptide / IC50 of test peptide)
1,TLEDLLMGT (modifications not checked),0.0002

# Target: HLA-A*0301 (human)
# Test: competitive inhibition of 125I-labelled standard peptide binding to purified HLA-A*0301, gel filtration
# Conditions: not given
row,Binder,relative binding ratio (IC50 of standard peptide / IC50 of test peptide) (ratio to standard peptide)
1,FTFPNPFPF (modifications not checked) [HPV31 E1 566 … (A03 motif peptide)],0.0008
2,QAEPDRAHY (modifications not checked) [HPV16 E7 44 …],0.0002
